# Assay results published in a protein production outcome set (Wang et al. 2014).
# Assay: label from the status in PepcDB records
sequence,measurement,value
MRIYRTLTTYIARTYLTALVGATLVVGALLMLFDVIEITRRSGSKAIGIDVVLEMALYHLPMSLQSALPFVFMGGAVMIFWKLARSSELVVIRAAGLSVWQFLAPVIAVVVVLGIANVTLLNPLAAHLYTKYERMDAGMDSGVANPLALSDGGLWLRENNPEGQVVMHAQGVRQVDNALRMTGVTIFRYGPDRRFESRIDAETAGLREGALVLTSVVTTYPGRVGERAETLEVPSNLTLPKIQDSFSPPETVSFWELPAFITFFEAAGFSAHAHRLHWHSLIASPLLLIAMVLMGAVFSLKPSQRSVNWLFRIVGAVAAGFGVFFFSKITYTLGLSQTLPVNLAAWSPALVTTMVALAALFHLEDG,protein production,failed
MGGLTLFAAQGCKAPKQVAEQAEHPNIIYVFPDQYRNQAMGFWNQEGFRDKVNFRGDPVHTPNIDTFARESMVLTSAQSNCPLSSPHRGMLLTGMYPNRSGVPLNCNSTRPISSLRDDAECIGDVFSKAGYDCAYFGKLHADFPTPNDPENPGQYVETQRPVWDAYTPKEQRHGFNYWYSYGTFDEHKNPHYWDTDGKRHDPKEWSPLHESGKVVSYLKNEGNVRDTKKPFFIMVGMNPPHSPYRSLNDCEEQDFNLYKDQPLDSLLIRPNVDLNMKKAESVRYYFASVTGVDRAFGQILEALKQLGLDKNTVVIFASDHGETMCSQRTDDPKNSPYSESMNIPFLVRFPGKIQPRVDDLLLSAPDIMPTVLGLCGLGDSIPSEVQGRNFAPLFFDEKAEIVRPAGALYIQNLDGEKDKDGLVQSYFPSSRGIKTARYTLALYIDRKTKQLKKSLLFDDVNDPYQLNNLPLDENKEVVEQLYREMGTMLKEIDDPWYTEKILSDRIPYLEHHHHHH,protein production,failed
MTNNQKLVGRHKRLAFMKVGTEGTYDRITGFTSLIEGKEAKEYARQYIDEATERTDVVGYATGIEYAFDRYTNNAVHEKIANITDDELLGVDAQVEIVSVDVFEEKAGGKYPARKRTYSVVPDTTGDGTDALIYSGNFKAVSEIVKGYCTTTDKWQTCTFVEGEIPAEALEHHHHHH,protein production,not failed
MVEFELLRSLGIMLLAALGVVLVARTARVPNIVAYIGAGLLLGPALGVLTVTHTIELIAEFGIILLLFLVGLELSLDKIKAVGTTAFVAGGVQMGGTALGGGLLAGLVGVPVVEAVVVAVAIMFSSTVVVVKMLEKQSDLDAPYGQIAVGVLLVQDLVVVMVLTFVAGLAGPGELAWADVARGLGQAFVGMVLLGGLIAAAARYVLPPAIQWISRMTEGLFIWSLFWCFLVVLGAEALHLSPELGAFLAGIALAQLPQCHELRQRVHPLMNFFIIVFFVSLGLQMELGAALARWPLALALAAFVMVVKPLLFFGVLPRLGHGEETSFRTGLSLAQISEFSLIFGALALSSGLIDEALLSVITLVGLVTFALSSFLLLYSDRLYAAVKPYRPLAWLGARQEAPAPPPDGLQGHVIVVGLNTLGRCLVDRLTAAGETVVAVDTDPEKLARRSVSTVHGNAVHETTREAADWEDAKLVVSSLSIEGTNNLLAYHAQRAGVPCSIHAFDRTSENSLRTFGVDHLIRSKHEGARRLLDELKSRAVLS,protein production,failed
MEKSNVFLLSILLMASLFSISHAFQLWGYAIDRVSIRGVVYCSLDGDPSAPPVSNATVYIECPGGSNSTLAQAVTNQVGVFTLPWLMFIANYAIGASRQ,protein production,failed
MTDMNPDIEKDQTSDEVTVETTSVFRADFLSELDAPAQAGTESAVSGVEGLPPGSALLVVKRGPNAGSRFLLDQAITSAGRHPDSDIFLDDVTVSRRHAEFRLENNEFNVVDVGSLNGTYVNREPVDSAVLANGDEVQIGKFRLVFLTGPKQGEDDGSTGGP,protein production,failed
MRRFGKWLGRVLLAALCAALVIGLWKGEEIKRLMAVNSLFEPDLIVRNFSNMDAAFLHTPVGEAQTPPSALPDGPKMTLPDGTAAWLAARKVTSLVVLSNGQLVHESYHLGTKAEDRRISWSLAKSYISALTGIVLAQGSIASLDDPVTRYAPRLKGGAYDGATVRNVLNMATGVTFDEDYTDYDSDINRMGRVLALGGLMDDFAAGLTQTFARPGSEWQYVSIDTHVLGMVIRAATGRSVVDLMGAHIITPLGLESTPYYLTDGAGVAFALGGLNMTTRDYARFGQMMAQHGAWNGRQIVPKNWVIDSTTASAPTGPDEYGYGYQWWMPRDARPREYMGRGIYGQYLYINEEQGVVVALTAADAAFRDADVQQQNIALFREIADRVQGDANGKR,protein production,failed
SALTLLEDWCKGMDMDPRKALLIVGIPMECSEVEIQDTVKAGLQPLCAYRVLGRMFRREDNAKAVFIELADTVNYTTLPSHIPGKGGSWEVVVKPRNPDDEFLSRLNYFLKDEGRSMTDVARALGCCSLPAESLDAEVMPQVRSPPLEPPKESMWYRKLKVFSGTASPSPGEETFEDWLEQVTEIMPIWQVSEVEKRRRLLESLRGPALSIMRVLQANNDSITVEQCLDALKQIFGDKEDFGASQFRFLQTSPKIGEKVSTFLLRLEPLLQKAVHKSPLSVRSTDMIRLKHLLARVAMTPALRGKLELLDQRGCPPNFLELMKLIRDEEEWENTEAVMKNKEKPSGRGRGASGRQARAEASVSAPQATVQARSFSDSSPQTIQGGLPPLVKRRRLLGSESTRGEDHGQATYPKAENQTPGREGPQAAGEELGNEAGAGAMSHPKPWET,protein production,not failed
MNYQKMNYQKLGVDILALSGGKQNVSKLTHCATRLRFEFNDSHAVQAEAIAKLPGVISVVDRGGQFQVVIGNDVQITYRAILNEIGEMNGQRTSDKNKQQKKGGIFSQIISVISTTFTPVIPAITGAGMIKALLAILKLTGLISADSTTYRLLDTISDAAFFFLPVLLAYGASIKFACNPILAMTIAGALLHPNLAQLLASGGPISFIGIPVRLADYAGSVLPIILTVWIMSYIERFAEKISPSMITFFTKPMIVLLFTAPLALVVIGPFGIFLNDLVASGAAIIDGKASWLIPMLMGGLQPFLVITGTAWAMTPIATSQLTRNGFEMINGPGMLASNIAQGAATLCVAFKTKNKNLKQLASSAGFTALLGITEPSLYGVTLKLKKPLIAAMIGGGCAGIYAGLAGLVRYAFVSPGLAALPAFIGENPMNIVHALITCAIAIVVTFALTWIMGFDDPVDETDNAQTDSTQSDARQSAPAANTTQKSQATENHAEPQTILSPLSGKLVALSDINDDVFSQGLLGQGVAIIPDNGEVVAPVSGEIITFLESKHAVGIRTDSGLELLIHVGLDTVNLNGKHFTGYIKPGDRVTAGDRLISFDLHEITRLGYDPITPVVIINSDEYASVVCTVPQPIAPMDTIINVNA,protein production,failed
NGDQQTMVYIVSAKRKIIADRMLQELDLGVTMLQAVGAYKNNETEVIMCVMRKATLVKVRNLLKEVDPDAFMIVSTANEVFGEGFKNQYETEI,protein production,not failed
MDTNNFTVKVEYVDADGAEIAPSDILTDYHYVSTPKDIPGYKLREIPHNATGNITDTGIIVRYIYLEHHHHHH,protein production,not failed
MSKSLGFKVSVSFVNIFALPFFFVLLYGSGFVGAKLGLPHSTPLSFLSLRFMAAGLILLIIAKLIGNQLPNWREAIHISVAGSLTVCLFSVGVFVSIDMGLSPAVSALIVALQPILVALFARKLVNEQLNLAQWFGLLFGFLGVIVVVIDSIETTSFSWVAIAMSVLALFGVTFGSLYQKRYCADMEIFYGGAIQSLVSGLICLALLPFFESFKVVWTGEFIISLVYMVVGVSLGALSLLYIMIQRGEVSRVASVFYLVPVSAAVSAYLLFGETIESTTLFGASIIALGIFLTNRKSQNNMVVSMNK,protein production,failed
MAELGITLRTVQSLGPGETIWDAGHRAAVRGFGVRRQRGAPVYVLKYRAHGRQRFFTIGPHGSPWTPERARREAKRLLGLVADGKDPADDRAEAALQAADTLLKIADQYLKHAKQKQRPRTYSEIERYLLTAWKPLHPVSVFLIKRRHVAIRIAEIATGQGAVTAARARAALSAMFNWAIREGLDIPANPVLGTNRPAAPRSRDRVLADGELAEIWAALGDDDYGRIVKLLLLTAQRREEVGSMRRTELDLENSVWKIPGNRTKNHREHKVPLTKAAIALIPLPRGNREYVFGDGPRREGDNHRGYSGWSKSKAGLDARLLAVRQKALDAGVAAEPLPDWHLHDLRRTAATVMADRLGVFPHIVEAVLNHVSGHRAGVAGVYNLARYETDMRAALNAWADNIKDIVAS,protein production,failed
MGQKKYVELSKDIFIFSYLCGGINFTDIANLTQENIVNGRLHYIRQKTGKLIKIGIPQEAMQIIKKYTDESNGYLFPILNVKVHKTALQKQNRIHKIRGKVNDILKTLGKRLGIEANITTYVARHSFASVLKKSGVNIALISEALGHSDLATTQIYLDSFDNEQVDEAMKNLLEHHHHHH,protein production,not failed
MKRLSTLCLLAAGFFIPGQAHQARPTVLDSVYAPLKVATPPSDAYIGLSLLDNGEIRHYNYGEQAVAGTVYLSSTDHGLTWKRVNRPKEMPFADCQSPVSKEYIRLVDMGAMGVYCIRTSGGLTGGRTLTKVADRNSIMIKPPVFIRNGKRIVVAAHGGVTPKGCYTYFSDDDGLTWKCSNTVTSPDHQGGGFHKGIRWNHGAVEPTVVELKDGTLWMLMRTSQDFHYQAFSKDGGQTWGESEPSPFYGTITMPTLGRLADGRLLLFWCNTTPLPEKEGTDGVWDDVFTNRDVTHVAVSDDDGKTWKGFRELYMDPMRNDIDYAVHGGGIDRGVHQAQFVEVAPGKVLASIGQHPLHRAMMMFDVNWLYEKSRFNDFTDSLSQWSTFNYMNGIKGHCAYNRIQGCMLEPHPRKEGRQVLHLTYRPDASLVADTRGAVWNFPAMKKGTFTVSLRIPEGSHSVSLLLNDRWMNPSDTVARYQSMYELPLTRKQLGVKDDRWHEVSLEWDLLQKRPQARVWVDGRLRPLRLPLKNKSQNGISYVHFIAPPAEANPGVYLEWVRAEADGAI,protein production,failed
MNDDVEFRYADFLFKNNNYAEAIEVFNKLEAKKYNSPYIYNRRAVCYYELAKYDLAQKDIETYFSKVNATKAKSADFEYYGKILMKKGQDSLAIQQYQAAVDRDTTRLDMYGQIGSYFYNKGNFPLAIQYMSKQIRPTTTDPKVFYELGQAYYYNKEYVKADSSFVKVLELKPNIYIGYLWRARANAAQDPDTKQGLAKPYYEKLIEVCAPGGAKYKDELIEANEYIAYYYTINRDKVKADAAWKNILALDPTNKKAIDGLKMKLEHHHHHH,protein production,not failed
VQFSLLHSKFHLCSVATRALLLSTYIKFINLFPETKATIQGVLRAGSQLRNADVELQQRAVEYLTLSSVASTDVLATVLEEMPPFPERESSILAKLKRKKGPGAGSALDDGRRDPSSNDINGGME,protein production,failed
MKKKLDRREAVRSEKKTLPWRKKRSSRGCCWRRRVATAVGEEESRRLMEKTRRDGEEEEVTSDGGSWNGKKKLYRRRRRYLGEETDRLAAEAGEEELRRLLENKRRGREEEERRRRNQIEEEERRRRRK,protein production,failed
GDETGVMDSLLEALQSGAAFRRKRGPRQANRKAGCAVTSLLASELTKDDAMAAVPAKVSKNSETFPTILEEAKELVGRAS,protein production,failed
MFQISFMSKQLQDLIDRELMNASSLVKKGKYEKALEKLNKAERLAEKAKNSELFCRVLLHKGEILDSMEKSREALLQYEKALEISLRFFMSDPQDSSSQRCLYNSIDLMENILNKIDDVSVAEKSYERTNKYFGKVIGTYEKLIAKYPENHYYLINYIITVKNLRGYLLNVGKSEKQIQLINSTLETFKEILNIQPENPEIFEKLDEFVKDLGEEFLDDELFENAKKIYEHLQGIYRGLLENYPDNELVLHYLIVSYGYFGNLYSRQRYLDRIEETYRPALSIVEDNLRKNPENTAFLENLGKIHEKIGVTYSEAKDQEKANSYYEKALANFVNLKGKASEDPDYQAELGKIFANLGERFETINRIENAAKSYLHKIEIYDSLFEEDPEDEDVKMDNIDTLMHIGNLYAEAGYTEPAKKYYEKAIEGYERLLSENPESTDFEIGISDILTALGDMYAKVGEEETEPEDAELETAREYYEKALKLNEKEFERYPDDLTCQDELIRTLGKLGDSFAVQDRYEDVIPFYRRIVEIKEQVVRDDPRRWLAVNSLTNFLYQLGSYYGKIEEVELERKQYSKAAELYSRALHDKNLQHQIKEVLAVEVQSHGTALLKSGKYNAAKEALDLALEFFENLYEEDPEDEENYPFICEALFQNGNLQRALENFEEAAKSFDSLLPIVEKLLESNPESPEARENAGVTYTNVGEVYSLNGEYEKSKQAFERALTINAVLLEEEPDNSLYKINQAQTFEKYAKLLSKLGRSEEAEDYSTKSEEIYRKLAEEDSDEGDINE,protein production,failed
